Measured values: the supplement of paper PMC10065799, “High-throughput profiling of sequence recognition by tyrosine kinases and SH2 domains using bacterial peptide display” (eLife, 2023)

Key:
[1] = target: SHP2-C SH2; experiment: SH2 binding enrichment of the phosphorylated peptide, bacterial display (enrichment ratio); higher = better substrate or ligand; peptides without Tyr show the background
[2] = target: Grb2 SH2 (UniProt P62993); experiment: as above
[3] = target: c-Src SH2; experiment: as above
[4] = test system: Fer (mouse); experiment: phosphorylation enrichment, bacterial display (enrichment ratio); higher = better substrate or ligand; peptides without Tyr show the background
[5] = target: Jak2 (UniProt O60674); experiment: as above
Sequence of Jak2 (O60674 whole entry, looked up): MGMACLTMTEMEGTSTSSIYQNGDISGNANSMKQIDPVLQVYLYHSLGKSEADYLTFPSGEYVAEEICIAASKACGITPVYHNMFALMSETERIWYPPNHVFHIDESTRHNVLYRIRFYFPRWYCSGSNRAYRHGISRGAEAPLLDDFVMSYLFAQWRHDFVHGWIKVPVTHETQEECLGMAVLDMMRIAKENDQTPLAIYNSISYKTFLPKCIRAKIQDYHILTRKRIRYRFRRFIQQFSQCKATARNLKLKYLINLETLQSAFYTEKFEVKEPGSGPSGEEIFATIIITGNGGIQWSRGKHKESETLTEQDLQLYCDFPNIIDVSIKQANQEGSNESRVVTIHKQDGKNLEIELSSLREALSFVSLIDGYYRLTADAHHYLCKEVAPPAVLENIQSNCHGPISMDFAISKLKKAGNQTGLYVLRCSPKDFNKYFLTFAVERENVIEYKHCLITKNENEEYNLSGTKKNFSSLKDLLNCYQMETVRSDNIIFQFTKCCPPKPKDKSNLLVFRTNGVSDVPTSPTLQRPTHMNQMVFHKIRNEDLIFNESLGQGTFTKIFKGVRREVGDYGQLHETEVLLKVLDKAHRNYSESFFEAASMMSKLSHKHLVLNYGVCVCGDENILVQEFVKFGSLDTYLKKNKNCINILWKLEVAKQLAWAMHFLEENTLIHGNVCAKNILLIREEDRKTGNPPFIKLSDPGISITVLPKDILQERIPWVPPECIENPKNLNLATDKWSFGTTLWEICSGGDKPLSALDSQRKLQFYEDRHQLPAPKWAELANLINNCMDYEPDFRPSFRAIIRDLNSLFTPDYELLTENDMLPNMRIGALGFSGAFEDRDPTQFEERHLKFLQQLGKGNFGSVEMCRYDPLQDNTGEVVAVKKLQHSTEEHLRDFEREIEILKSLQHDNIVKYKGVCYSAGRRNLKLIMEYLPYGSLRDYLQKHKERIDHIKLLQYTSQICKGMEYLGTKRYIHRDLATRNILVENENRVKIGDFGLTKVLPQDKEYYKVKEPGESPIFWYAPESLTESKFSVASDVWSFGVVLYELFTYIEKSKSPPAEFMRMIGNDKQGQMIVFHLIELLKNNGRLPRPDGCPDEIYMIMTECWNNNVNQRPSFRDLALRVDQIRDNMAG

[6] = target: FGFR3 (UniProt P22607); experiment: as above
Sequence of FGFR3 (P22607 whole entry, looked up): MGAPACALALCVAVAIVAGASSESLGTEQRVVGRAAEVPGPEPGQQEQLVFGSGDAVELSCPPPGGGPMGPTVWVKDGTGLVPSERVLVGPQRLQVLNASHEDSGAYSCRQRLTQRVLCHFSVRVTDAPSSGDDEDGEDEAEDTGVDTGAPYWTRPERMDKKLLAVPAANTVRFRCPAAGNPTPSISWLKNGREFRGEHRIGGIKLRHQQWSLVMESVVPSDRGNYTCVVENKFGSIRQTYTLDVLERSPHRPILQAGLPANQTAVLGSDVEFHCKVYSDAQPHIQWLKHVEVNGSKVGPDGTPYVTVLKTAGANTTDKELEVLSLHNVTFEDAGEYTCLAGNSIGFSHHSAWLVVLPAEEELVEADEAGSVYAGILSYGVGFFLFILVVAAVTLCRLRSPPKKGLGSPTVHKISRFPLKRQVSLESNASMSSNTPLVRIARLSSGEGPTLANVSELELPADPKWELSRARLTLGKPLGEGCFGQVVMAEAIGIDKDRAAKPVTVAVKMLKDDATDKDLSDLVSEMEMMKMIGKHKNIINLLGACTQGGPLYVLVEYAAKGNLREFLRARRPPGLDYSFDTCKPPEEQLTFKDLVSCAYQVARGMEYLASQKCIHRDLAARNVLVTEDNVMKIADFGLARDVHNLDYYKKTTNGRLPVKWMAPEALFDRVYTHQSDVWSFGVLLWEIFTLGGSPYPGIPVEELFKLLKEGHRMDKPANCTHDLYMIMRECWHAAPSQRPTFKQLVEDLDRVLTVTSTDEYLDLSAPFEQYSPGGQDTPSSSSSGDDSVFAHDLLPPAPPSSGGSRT

[7] = target: Hck (UniProt P08631); experiment: as above
[8] = target: Fes (UniProt P07332); experiment: as above
[9] = target: MERTK (UniProt Q12866); experiment: as above
[10] = target: FGFR1 (UniProt P11362); experiment: as above
Sequence of FGFR1 (P11362 whole entry, looked up): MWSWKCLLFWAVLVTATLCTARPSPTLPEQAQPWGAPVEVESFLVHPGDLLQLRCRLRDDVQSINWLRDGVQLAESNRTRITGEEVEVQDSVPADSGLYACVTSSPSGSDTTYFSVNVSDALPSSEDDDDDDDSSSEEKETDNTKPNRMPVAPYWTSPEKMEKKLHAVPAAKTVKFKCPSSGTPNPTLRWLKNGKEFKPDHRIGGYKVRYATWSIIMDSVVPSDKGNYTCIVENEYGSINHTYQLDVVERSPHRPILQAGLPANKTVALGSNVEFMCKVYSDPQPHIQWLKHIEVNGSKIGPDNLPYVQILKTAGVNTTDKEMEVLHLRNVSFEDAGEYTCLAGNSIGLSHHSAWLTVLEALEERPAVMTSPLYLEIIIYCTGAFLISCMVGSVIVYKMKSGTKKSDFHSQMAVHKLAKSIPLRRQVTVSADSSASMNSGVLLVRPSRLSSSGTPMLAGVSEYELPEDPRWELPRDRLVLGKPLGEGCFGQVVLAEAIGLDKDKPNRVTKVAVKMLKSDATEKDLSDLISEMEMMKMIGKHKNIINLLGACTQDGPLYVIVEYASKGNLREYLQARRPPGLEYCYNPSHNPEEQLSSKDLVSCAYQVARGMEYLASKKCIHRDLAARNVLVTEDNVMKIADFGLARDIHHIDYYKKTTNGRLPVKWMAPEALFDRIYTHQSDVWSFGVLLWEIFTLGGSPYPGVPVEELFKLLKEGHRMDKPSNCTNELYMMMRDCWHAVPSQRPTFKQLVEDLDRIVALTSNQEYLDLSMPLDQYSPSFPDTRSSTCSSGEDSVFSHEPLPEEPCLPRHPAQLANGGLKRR

[11] = test system: c-Src; experiment: as above
[12] = test system: AncSZ; experiment: as above
[13] = target: EPHB2 (UniProt P29323); experiment: as above
Sequence of EPHB2 (P29323 whole entry, looked up): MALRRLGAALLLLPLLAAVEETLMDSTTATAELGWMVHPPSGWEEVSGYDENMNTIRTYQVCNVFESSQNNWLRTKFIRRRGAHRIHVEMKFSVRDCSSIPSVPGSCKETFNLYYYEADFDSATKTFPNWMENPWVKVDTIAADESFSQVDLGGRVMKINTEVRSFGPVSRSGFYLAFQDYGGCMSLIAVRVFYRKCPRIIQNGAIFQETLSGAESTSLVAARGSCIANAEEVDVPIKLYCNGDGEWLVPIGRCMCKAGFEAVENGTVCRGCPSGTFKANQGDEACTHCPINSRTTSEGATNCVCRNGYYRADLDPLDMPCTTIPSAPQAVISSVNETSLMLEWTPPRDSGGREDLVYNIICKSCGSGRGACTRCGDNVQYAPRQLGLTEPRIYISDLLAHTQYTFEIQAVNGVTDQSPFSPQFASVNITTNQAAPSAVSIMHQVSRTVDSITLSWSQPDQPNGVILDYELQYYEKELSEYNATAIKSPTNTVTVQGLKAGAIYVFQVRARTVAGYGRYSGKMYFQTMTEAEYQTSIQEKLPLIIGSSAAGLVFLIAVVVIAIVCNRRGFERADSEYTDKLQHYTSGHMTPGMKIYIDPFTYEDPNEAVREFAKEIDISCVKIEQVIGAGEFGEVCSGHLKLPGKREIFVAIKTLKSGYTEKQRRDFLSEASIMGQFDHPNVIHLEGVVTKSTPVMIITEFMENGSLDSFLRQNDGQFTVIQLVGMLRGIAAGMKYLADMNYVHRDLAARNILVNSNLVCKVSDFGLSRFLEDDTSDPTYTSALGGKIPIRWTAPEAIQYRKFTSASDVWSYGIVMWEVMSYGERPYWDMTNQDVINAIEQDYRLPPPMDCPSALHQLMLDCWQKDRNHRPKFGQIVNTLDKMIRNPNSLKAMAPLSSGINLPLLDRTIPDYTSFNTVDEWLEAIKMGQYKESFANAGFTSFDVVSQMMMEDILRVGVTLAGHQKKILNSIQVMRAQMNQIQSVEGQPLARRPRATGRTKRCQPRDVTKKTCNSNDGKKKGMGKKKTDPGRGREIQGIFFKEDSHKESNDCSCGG

[14] = target: EPHB1 (UniProt P54762); experiment: as above
Sequence of EPHB1 (P54762 whole entry, looked up): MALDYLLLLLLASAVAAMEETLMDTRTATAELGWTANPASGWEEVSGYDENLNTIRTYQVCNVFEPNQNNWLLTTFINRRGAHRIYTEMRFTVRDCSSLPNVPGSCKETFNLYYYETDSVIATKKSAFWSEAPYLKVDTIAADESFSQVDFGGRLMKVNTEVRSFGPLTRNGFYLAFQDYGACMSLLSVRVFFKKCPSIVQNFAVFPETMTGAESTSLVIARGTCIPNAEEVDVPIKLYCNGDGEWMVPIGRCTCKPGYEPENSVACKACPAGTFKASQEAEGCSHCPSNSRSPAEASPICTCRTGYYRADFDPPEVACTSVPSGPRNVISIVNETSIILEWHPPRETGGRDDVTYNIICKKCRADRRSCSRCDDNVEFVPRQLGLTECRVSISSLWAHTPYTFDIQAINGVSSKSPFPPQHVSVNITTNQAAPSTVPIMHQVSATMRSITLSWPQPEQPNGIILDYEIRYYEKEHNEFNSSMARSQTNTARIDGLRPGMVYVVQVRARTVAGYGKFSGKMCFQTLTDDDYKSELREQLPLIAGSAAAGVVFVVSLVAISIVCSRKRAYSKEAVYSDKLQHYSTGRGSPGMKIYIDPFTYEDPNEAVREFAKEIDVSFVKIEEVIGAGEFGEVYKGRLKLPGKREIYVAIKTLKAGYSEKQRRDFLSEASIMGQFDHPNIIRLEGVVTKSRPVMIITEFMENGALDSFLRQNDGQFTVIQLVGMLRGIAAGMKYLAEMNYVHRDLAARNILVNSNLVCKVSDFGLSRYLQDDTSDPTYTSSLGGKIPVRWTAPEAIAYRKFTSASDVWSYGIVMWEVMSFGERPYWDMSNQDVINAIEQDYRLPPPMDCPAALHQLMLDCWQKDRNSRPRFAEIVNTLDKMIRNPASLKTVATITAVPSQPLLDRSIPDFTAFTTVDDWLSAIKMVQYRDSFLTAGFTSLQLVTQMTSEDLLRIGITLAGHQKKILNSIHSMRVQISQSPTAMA

[15] = target: Fyn (UniProt P06241); experiment: as above
[16] = test system: c-Abl (mouse); experiment: as above
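For SH2 binding enrichment of the phosphorylated peptide, bacterial display in this document: peptide library displayed on the E. coli surface as eCPX fusions, selected cells deep-sequenced, score is each peptide's frequency after selection divided by its frequency in the input.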
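For phosphorylation enrichment, bacterial display in this document: 11-residue human phosphosite peptides and single-mutation variants displayed on the E. coli surface, counted by deep sequencing, each peptide's frequency after selection divided by its frequency in the unselected input library; frequency after pTyr selection over input frequency; kinase dosed for 20-30% of maximal phosphorylation in three min.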

Sequence	SH2 binding enrichment [1]	SH2 binding enrichment [2]	SH2 binding enrichment [3]	phosphorylation enrichment [4]	phosphorylation enrichment [5]	phosphorylation enrichment [6]	phosphorylation enrichment [7]	phosphorylation enrichment [8]	phosphorylation enrichment [9]	phosphorylation enrichment [10]	phosphorylation enrichment [11]	phosphorylation enrichment [12]	phosphorylation enrichment [13]	phosphorylation enrichment [14]	phosphorylation enrichment [15]	phosphorylation enrichment [16]
QQLQGYIPSNY [FRK_Y99]	0.477	0.944	0.333	0.329	0.647	0.49	0.633	0.671	0.475	0.314	0.382	0.623	0.437	0.473	0.356	0.47
EKEKEYMLPLD [DNM2_Y563_K562E]	0.729	0.834	0.581	0.388	0.743	0.604	0.469	0.959	0.442	0.443	0.358	1.1	0.414	0.48	0.421	0.479
YKIYLYTLNDN [FN1_Y1975]	0.851	0.794	0.483	0.671	1.4	1.02	0.563	1.52	0.383	0.541	0.431	1.34	0.711	0.801	0.479	1.09
MAQDIYRASYY [ALK_Y1278_R1275Q]	0.73	0.882	0.755	0.451	0.61	0.653	2.54	0.765	0.791	0.786	3.15	0.662	0.53	0.576	1.62	7.45
VMAALYGRLFE [BTD_Y536_T532M_YF]	1.44	1.59	1.18	0.612	1.03	0.752	5.53	1.18	1.34	0.457	6.1	0.981	0.743	0.597	6.68	0.967
RRAKGYPINLY [ITGB2_Y125_D128N]	0.55	0.764	0.484	0.656	0.693	0.605	0.912	0.932	0.623	0.814	0.7	0.762	0.853	0.707	0.963	0.535
TSIGNYFKPWF [DHCR24_Y299_N294T_YF]	8.03	0.907	0.83	0.473	7.94	1.23	0.46	0.778	4.44	1.66	0.348	1.03	4.48	8.6	0.428	6.12

The next lines start with results.

SH2 binding enrichment [1]	SH2 binding enrichment [2]	SH2 binding enrichment [3]	Sequence	phosphorylation enrichment [4]	phosphorylation enrichment [5]	phosphorylation enrichment [6]	phosphorylation enrichment [7]	phosphorylation enrichment [8]	phosphorylation enrichment [9]	phosphorylation enrichment [10]	phosphorylation enrichment [11]	phosphorylation enrichment [12]	phosphorylation enrichment [13]	phosphorylation enrichment [14]	phosphorylation enrichment [15]	phosphorylation enrichment [16]
0.594	0.956	0.554	DTQNSYRCATS [TSC1_Y304_G305R]	0.392	0.612	0.486	0.42	0.726	0.466	0.565	0.449	0.771	0.501	0.389	0.538	0.593
1.88	1.17	1.03	SWSTSYSGYRY [NKAPL_Y91]	0.591	0.741	0.656	0.701	0.925	0.461	0.707	1.7	0.825	0.619	0.596	0.706	0.652
0.414	0.604	0.499	FFVVRYCWLRR [MPZ_Y181_YF]	0.493	0.597	0.609	0.459	0.819	0.564	0.456	0.5	0.767	0.496	0.483	0.495	0.623
0.704	0.718	0.481	GDSVQYNRTTD [MLPH_Y454_P451S]	0.457	0.728	0.498	0.498	0.999	0.419	0.487	0.422	0.612	0.38	0.486	0.469	0.548
0.762	1	0.753	RAIELCNDKEK [OTULIN_Y244_Y244C]	0.471	0.752	0.425	0.381	1.38	0.395	0.354	0.481	0.852	0.76	0.406	0.509	0.682
0.654	0.815	0.41	GLALRCLSDHS [VWF_Y1584_Y1584C]	0.518	0.961	0.711	0.59	1.16	0.422	0.551	0.503	0.86	0.559	0.592	0.515	0.718
2.5	1.03	1.91	SLFNGYVYSGV [NEIL3_Y71]	0.864	1.58	0.634	4.49	0.978	0.929	0.624	4.91	1.04	0.66	0.555	5.75	0.695
11.8	0.866	3.44	QTPVLYTMLDH [MPZ_Y220_A221T]	10.7	0.907	3.51	5.48	1.14	13.4	2.85	3	0.896	1.78	4.45	2.02	0.674
0.831	0.941	0.514	EDKSIYRRGAC [PRKCI_Y125_R130C]	0.35	0.532	0.495	0.405	0.705	0.406	0.42	0.315	0.496	0.429	0.34	0.375	0.474
0.508	0.65	0.47	LLPNAYIFVVQ [L1CAM_Y418_A415P_YF]	0.731	1.5	1.07	0.73	1.66	0.561	0.868	0.481	1.79	1.06	0.849	0.634	1.06
